Here are results for two molecules from patent publication US20090055975A1.

This test has as its target receptor on the pea aphid (Acyrthosiphon pisum) gut epithelium. Briefly: cell-based or functional assay.

The molecule “control phage PhDC6 displaying control peptide C6” returned a Detection of PEMV RNA in the aphid hemocoel, 1-10 min (No. of positive/No. of tested) (positive samples of 4 tested) of 0; a Detection of PEMV RNA in the aphid hemocoel, 11-20 min (No. of positive/No. of tested) (positive samples of 4 tested) of 0; a Detection of PEMV RNA in the aphid hemocoel, 21-30 min (No. of positive/No. of tested) (positive samples of 4 tested) of 2; a time of feeding on virus-infected plants until viral RNA is detected in hemolymph of 30 min.
ATCSKKYPRSPCMA (peptide, not shown: large carriers) [phage PhD3.1 displaying peptide GBP3.1] returned a Detection of PEMV RNA in the aphid hemocoel, 1-10 min (No. of positive/No. of tested) (positive samples of 6 tested) of 0; a Detection of PEMV RNA in the aphid hemocoel, 11-20 min (No. of positive/No. of tested) (positive samples of 6 tested) of 0; a Detection of PEMV RNA in the aphid hemocoel, 21-30 min (No. of positive/No. of tested) (positive samples of 6 tested) of 0; a Detection of PEMV RNA in the aphid hemocoel, 31-40 min (No. of positive/No. of tested) (positive samples of 6 tested) of 0. Besides, the Detection of PEMV RNA in the aphid hemocoel, 41-50 min (No. of positive/No. of tested) (positive samples of 6 tested) came out at 0; the Detection of PEMV RNA in the aphid hemocoel, 51-60 min (No. of positive/No. of tested) (positive samples of 6 tested) stood at 1; the Detection of PEMV RNA in the aphid hemocoel, 61-75 min (No. of positive/No. of tested) (positive samples of 2 tested) turned out to be 0; the Detection of PEMV RNA in the aphid hemocoel, 76-90 min (No. of positive/No. of tested) (positive samples of 2 tested) was 0. Besides, the time of feeding on virus-infected plants until viral RNA is detected in hemolymph was 60 min.
